test system: Escherichia coli TOP10; assay: shrunken log2 fold change of peptide-encoding DNA abundance (4.5 h post-induction vs induction); higher = less antimicrobial activity (less host growth inhibition); conditions: time post-induction: 4.5 h; library: site-saturation at positions 5, 18, 19, 20
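Note: peptides expressed intracellularly from a pBAD plasmid library in pooled LB shake-flask culture, induced with 0.3% L-arabinose, DNA abundance read by NGS, three biological replicates, DESeq2 with apeglm shrinkage.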

Going from RRIRGRPPRLPRPRPRPEFNPRP to RRIRKRPPRLPRPRPRPFNEPRP, the “shrunken log2 fold change” value falls from 0.669 to 0.0442.

Compared with RRIRVRPPRLPRPRPRPRGNPRP, RRIRTRPPRLPRPRPRPKGMPRP is lower in “shrunken log2 fold change” value: 0.378 for the first, 0.138 for the second.

RRIRIRPPRLPRPRPRPSDPPRP and RRIRERPPRLPRPRPRPWLFPRP are within 0.2 log units of each other in “shrunken log2 fold change” value: -0.136 for the first, -0.0723 for the second.

RRIRQRPPRLPRPRPRPDRNPRP and RRIRYRPPRLPRPRPRPAIYPRP are within 0.2 log units of each other in “shrunken log2 fold change” value: -0.176 for the first, -0.121 for the second.

Compared with RRIRFRPPRLPRPRPRPHEIPRP, RRIRHRPPRLPRPRPRPPNEPRP is higher in “shrunken log2 fold change” value: -0.0536 for the first, 0.159 for the second.

First: RRIRFRPPRLPRPRPRPHIHPRP
Second: RRIRCRPPRLPRPRPRPWCCPRP
The “shrunken log2 fold change” value of the first is lower: -1.17 for the first, -0.649 for the second.

First: RRIRDRPPRLPRPRPRPPQWPRP
Second: RRIRFRPPRLPRPRPRPAHYPRP
The “shrunken log2 fold change” value of the first is higher: 0.568 for the first, -0.059 for the second.

First: RRIRDRPPRLPRPRPRPSYTPRP
Second: RRIRFRPPRLPRPRPRPRKVPRP
The “shrunken log2 fold change” value of the first is lower: -0.302 for the first, 0.352 for the second.

Going from RRIRNRPPRLPRPRPRPETRPRP to RRIRFRPPRLPRPRPRPWKWPRP, the “shrunken log2 fold change” value falls from 0.254 to -0.0196.

Going from RRIRYRPPRLPRPRPRPSHKPRP to RRIRMRPPRLPRPRPRPHYEPRP, the “shrunken log2 fold change” value rises from -1.57 to -0.0284.

First: RRIRYRPPRLPRPRPRPVIDPRP
Second: RRIRSRPPRLPRPRPRPFVWPRP
The “shrunken log2 fold change” value of the first is lower: -0.942 for the first, -0.0361 for the second.

Going from RRIRWRPPRLPRPRPRPWQYPRP to RRIRFRPPRLPRPRPRPYIQPRP, the “shrunken log2 fold change” value falls from -0.0277 to -0.841.

First: RRIRTRPPRLPRPRPRPVGRPRP
Second: RRIRVRPPRLPRPRPRPERVPRP
The “shrunken log2 fold change” value of the first is higher: 0.129 for the first, -0.107 for the second.

First: RRIRMRPPRLPRPRPRPWVVPRP
Second: RRIRDRPPRLPRPRPRPRVAPRP
The “shrunken log2 fold change” value of the first is lower: 0.346 for the first, 0.729 for the second.

Going from RRIRKRPPRLPRPRPRPPMWPRP to RRIRWRPPRLPRPRPRPNESPRP, the “shrunken log2 fold change” value falls from 0.297 to -0.0337.

Going from RRIRARPPRLPRPRPRPREAPRP to RRIRNRPPRLPRPRPRPVEWPRP, the “shrunken log2 fold change” value falls from 1.25 to 0.00664.

Going from RRIRDRPPRLPRPRPRPGGLPRP to RRIRNRPPRLPRPRPRPKIRPRP, the “shrunken log2 fold change” value falls from 0.501 to -0.0344.

Going from RRIRCRPPRLPRPRPRPTFGPRP to RRIRCRPPRLPRPRPRPAPNPRP, the “shrunken log2 fold change” value rises from -0.213 to 0.526.

RRIRARPPRLPRPRPRPFSKPRP and RRIRFRPPRLPRPRPRPSGQPRP are within 0.2 log units of each other in “shrunken log2 fold change” value: -0.301 for the first, -0.204 for the second.

First: RRIRIRPPRLPRPRPRPYCAPRP
Second: RRIRPRPPRLPRPRPRPYWKPRP
The “shrunken log2 fold change” value of the first is lower: -0.978 for the first, -0.189 for the second.

Compared with RRIRMRPPRLPRPRPRPEDSPRP, RRIRWRPPRLPRPRPRPKQNPRP is higher in “shrunken log2 fold change” value: 0.0648 for the first, 0.3 for the second.

RRIRMRPPRLPRPRPRPYMAPRP and RRIRSRPPRLPRPRPRPDRPPRP are within 0.2 log units of each other in “shrunken log2 fold change” value: -0.162 for the first, -0.0605 for the second.

RRIRGRPPRLPRPRPRPFKYPRP and RRIRYRPPRLPRPRPRPDFVPRP are within 0.2 log units of each other in “shrunken log2 fold change” value: -0.221 for the first, -0.205 for the second.

Going from RRIRTRPPRLPRPRPRPEARPRP to RRIRFRPPRLPRPRPRPFTRPRP, the “shrunken log2 fold change” value falls from 0.552 to 0.0083.

Going from RRIRIRPPRLPRPRPRPVHFPRP to RRIRQRPPRLPRPRPRPTHQPRP, the “shrunken log2 fold change” value rises from -0.355 to 0.403.

First: RRIRTRPPRLPRPRPRPWWWPRP
Second: RRIRIRPPRLPRPRPRPSCFPRP
The “shrunken log2 fold change” value of the first is higher: -0.0964 for the first, -0.625 for the second.

Going from RRIRQRPPRLPRPRPRPSYHPRP to RRIRPRPPRLPRPRPRPWRWPRP, the “shrunken log2 fold change” value rises from -0.178 to 0.915.

First: RRIRLRPPRLPRPRPRPAEFPRP
Second: RRIRSRPPRLPRPRPRPQEDPRP
The “shrunken log2 fold change” value of the first is higher: -0.011 for the first, -0.244 for the second.

RRIRPRPPRLPRPRPRPESLPRP and RRIRHRPPRLPRPRPRPWLQPRP are within 0.2 log units of each other in “shrunken log2 fold change” value: -0.0197 for the first, 0.0358 for the second.

First: RRIRWRPPRLPRPRPRPPLRPRP
Second: RRIRARPPRLPRPRPRPANFPRP
The “shrunken log2 fold change” value of the first is higher: 0.418 for the first, 0.137 for the second.

Compared with RRIRTRPPRLPRPRPRPAVGPRP, RRIRARPPRLPRPRPRPGGHPRP is lower in “shrunken log2 fold change” value: 0.532 for the first, 0.115 for the second.

Compared with RRIRMRPPRLPRPRPRPESCPRP, RRIRERPPRLPRPRPRPHNCPRP is lower in “shrunken log2 fold change” value: 3.68 for the first, -0.417 for the second.

Compared with RRIRQRPPRLPRPRPRPATPPRP, RRIRKRPPRLPRPRPRPRKEPRP is lower in “shrunken log2 fold change” value: 0.331 for the first, 0.015 for the second.

RRIRTRPPRLPRPRPRPMPLPRP and RRIRSRPPRLPRPRPRPPEIPRP are within 0.2 log units of each other in “shrunken log2 fold change” value: -0.104 for the first, -0.19 for the second.

RRIRVRPPRLPRPRPRPKWWPRP and RRIRSRPPRLPRPRPRPPLIPRP are within 0.2 log units of each other in “shrunken log2 fold change” value: 0.0767 for the first, 0.191 for the second.

RRIRGRPPRLPRPRPRPIDIPRP and RRIRKRPPRLPRPRPRPQCFPRP are within 0.2 log units of each other in “shrunken log2 fold change” value: -0.0347 for the first, -0.0263 for the second.

Going from RRIRARPPRLPRPRPRPQREPRP to RRIRERPPRLPRPRPRPVFFPRP, the “shrunken log2 fold change” value falls from 0.869 to 0.0585.

First: RRIRQRPPRLPRPRPRPLDYPRP
Second: RRIRVRPPRLPRPRPRPADWPRP
The “shrunken log2 fold change” value of the first is lower: 0.13 for the first, 0.379 for the second.

First: RRIRFRPPRLPRPRPRPDNEPRP
Second: RRIRLRPPRLPRPRPRPTDMPRP
The “shrunken log2 fold change” value of the first is higher: -0.0688 for the first, -0.633 for the second.

Going from RRIRARPPRLPRPRPRPYQLPRP to RRIRARPPRLPRPRPRPKDHPRP, the “shrunken log2 fold change” value rises from -0.215 to 0.175.

RRIRFRPPRLPRPRPRPRCAPRP and RRIRNRPPRLPRPRPRPDDLPRP are within 0.2 log units of each other in “shrunken log2 fold change” value: 0.178 for the first, -0.000687 for the second.

Compared with RRIRMRPPRLPRPRPRPFSGPRP, RRIRTRPPRLPRPRPRPRWLPRP is higher in “shrunken log2 fold change” value: -0.0134 for the first, 0.369 for the second.

RRIRYRPPRLPRPRPRPPARPRP and RRIRRRPPRLPRPRPRPENCPRP are within 0.2 log units of each other in “shrunken log2 fold change” value: 0.119 for the first, 0.0654 for the second.

RRIRTRPPRLPRPRPRPVKPPRP and RRIRPRPPRLPRPRPRPKTAPRP are within 0.2 log units of each other in “shrunken log2 fold change” value: 0.00237 for the first, -0.109 for the second.

RRIRMRPPRLPRPRPRPDDCPRP and RRIRWRPPRLPRPRPRPKRFPRP are within 0.2 log units of each other in “shrunken log2 fold change” value: 0.681 for the first, 0.729 for the second.

RRIRTRPPRLPRPRPRPYGFPRP and RRIRHRPPRLPRPRPRPINTPRP are within 0.2 log units of each other in “shrunken log2 fold change” value: -0.315 for the first, -0.249 for the second.

RRIRCRPPRLPRPRPRPWCTPRP and RRIRWRPPRLPRPRPRPMGNPRP are within 0.2 log units of each other in “shrunken log2 fold change” value: 0.023 for the first, -0.0828 for the second.

RRIRDRPPRLPRPRPRPTYHPRP and RRIRYRPPRLPRPRPRPFVSPRP are within 0.2 log units of each other in “shrunken log2 fold change” value: -0.0146 for the first, 0.00884 for the second.

RRIRKRPPRLPRPRPRPNYTPRP and RRIRIRPPRLPRPRPRPSIVPRP are within 0.2 log units of each other in “shrunken log2 fold change” value: -0.281 for the first, -0.477 for the second.

RRIRARPPRLPRPRPRPMHMPRP and RRIRQRPPRLPRPRPRPEHNPRP are within 0.2 log units of each other in “shrunken log2 fold change” value: -0.0568 for the first, -0.137 for the second.

Going from RRIRLRPPRLPRPRPRPPYDPRP to RRIRFRPPRLPRPRPRPYMVPRP, the “shrunken log2 fold change” value falls from -0.188 to -0.953.

RRIRMRPPRLPRPRPRPHFSPRP and RRIRHRPPRLPRPRPRPFDNPRP are within 0.2 log units of each other in “shrunken log2 fold change” value: -0.194 for the first, -0.0137 for the second.

Going from RRIRVRPPRLPRPRPRPKTEPRP to RRIRVRPPRLPRPRPRPSMVPRP, the “shrunken log2 fold change” value falls from 0.00185 to -0.475.

RRIRKRPPRLPRPRPRPKLVPRP and RRIRERPPRLPRPRPRPICWPRP are within 0.2 log units of each other in “shrunken log2 fold change” value: 0.0448 for the first, 0.0372 for the second.

First: RRIRNRPPRLPRPRPRPISRPRP
Second: RRIRHRPPRLPRPRPRPHRLPRP
The “shrunken log2 fold change” value of the first is lower: -0.612 for the first, -0.0453 for the second.

First: RRIRRRPPRLPRPRPRPDVPPRP
Second: RRIRRRPPRLPRPRPRPDLWPRP
The “shrunken log2 fold change” value of the first is lower: 0.0826 for the first, 0.676 for the second.
